In the supplement of paper PMC11246515:
± gives the standard deviation of the averaged measurements.

Experiment: total protein half-life in vivo (active degradation + dilution); higher = more stable protein
[1] = E. coli NCM3722 delta-clpP delta-lon delta-hslV, growth: N-lim chemostat, doubling time 6 h
[2] = E. coli NCM3722 delta-clpP, growth: N-lim chemostat, doubling time 6 h
[3] = E. coli NCM3722 delta-hslV, growth: N-lim chemostat, doubling time 6 h
[4] = E. coli NCM3722 delta-lon, growth: N-lim chemostat, doubling time 6 h
[5] = E. coli NCM3722 delta-smpB, growth: N-lim chemostat, doubling time 6 h
[6] = wild type E. coli NCM3722, growth: C-lim chemostat, doubling time 3 h
[7] = wild type E. coli NCM3722, growth: C-lim chemostat, doubling time 6 h
[8] = wild type E. coli NCM3722, growth: C-lim chemostat, doubling time 12 h
[9] = wild type E. coli NCM3722, growth: N-lim chemostat, doubling time 6 h
[10] = wild type E. coli NCM3722, growth: N-lim chemostat, doubling time 12 h
[11] = wild type E. coli NCM3722, growth: P-lim chemostat, doubling time 6 h
[12] = wild type E. coli NCM3722, growth: P-lim chemostat, doubling time 12 h

P0AFC7, sequence (chain, as listed by the source): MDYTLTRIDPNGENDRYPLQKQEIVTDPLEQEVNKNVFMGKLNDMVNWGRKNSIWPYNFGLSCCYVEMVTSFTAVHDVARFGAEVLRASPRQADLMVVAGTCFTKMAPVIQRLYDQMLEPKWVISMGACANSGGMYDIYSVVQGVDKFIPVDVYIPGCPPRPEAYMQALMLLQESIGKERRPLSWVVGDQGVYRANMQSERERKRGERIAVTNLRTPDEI

MQENISVTDSYSTGNAAQAMLEKLLQIYDVKTLVAQLNGVGENHWSAAILKRALANDSAWHRLSEKEFAHLQTLLPKPPAHHPHYAFRFIDLFAGIGGIRRGFESIGGQCVFTSEWNKHAVRTYKANHYCDPATHHFNEDIRDITLSHKEGVSDEAAAEHIRQHIPEHDVLLAGFPCQPFSLAGVSKKNSLGRAHGFACDTQGTLFFDVVRIIDARRPAMFVLENVKNLKSHDQGKTFRIIMQTLDELGYDVADAEDNGPDDPKIIDGKHFLPQHRERIVLVGFRRDLNLKADFTLRDISECFPAQRVTLAQLLDPMVEAKYILTPVLWKYLYRYAKKHQARGNGFGYGMVYPNNPQSVTRTLSARYYKDGAEILIDRGWDMATGEKDFDDPLNQQHRPRRLTPRECARLMGFEAPGEAKFRIPVSDTQAYRQFGNSVVVPVFAAVAKLLEPKIKQAVALRQQEAQHGRRSR [P0AED9]
total protein half-life in vivo [1]: 6.76 ± 1.5 h | total protein half-life in vivo [2]: 5.15 ± 0.12 h | total protein half-life in vivo [3]: 3.09 ± 0.34 h | total protein half-life in vivo [4]: 2.96 ± 0.39 h | total protein half-life in vivo [5]: 2.66 ± 0.11 h | total protein half-life in vivo [6]: 2.31 ± 0.072 h | total protein half-life in vivo [7]: 3.32 ± 0.18 h | total protein half-life in vivo [8]: 6.06 ± 0.83 h | total protein half-life in vivo [9]: 3.04 ± 0.39 h | total protein half-life in vivo [10]: 3.94 ± 0.19 h | total protein half-life in vivo [11]: 3.02 ± 0.45 h | total protein half-life in vivo [12]: 5.98 ± 1 h

P0AFC7
total protein half-life in vivo [1]: 6.19 ± 0.65 h | total protein half-life in vivo [2]: 5.993 ± 0.019 h | total protein half-life in vivo [3]: 6.34 ± 0.17 h | total protein half-life in vivo [4]: 5.81 ± 1.1 h | total protein half-life in vivo [5]: 5.87 ± 0.17 h | total protein half-life in vivo [6]: 2.92 ± 0.093 h | total protein half-life in vivo [7]: 5.98 ± 0.26 h | total protein half-life in vivo [8]: 11.2 ± 1.5 h | total protein half-life in vivo [9]: 6.54 ± 0.77 h | total protein half-life in vivo [10]: 12.5 ± 0.86 h | total protein half-life in vivo [11]: 5.59 ± 0.15 h | total protein half-life in vivo [12]: 12.5 ± 0.61 h

MTHLPHWWQNGVIYQIYPKSFQDTTGSGTGDLRGVIQHLDYLHKLGVDAIWLTPFYVSPQVDNGYDVANYTAIDPTYGTLDDFDELVTQAKSRGIRIILDMVFNHTSTQHAWFREALNKESPYRQFYIWRDGEPETPPNNWRSKFGGSAWRWHAESEQYYLHLFAPEQADLNWENPAVRAELKKVCEFWADRGVDGLRLDVVNLISKDPRFPEDLDGDGRRFYTDGPRAHEFLHEMNRDVFTPRGLMTVGEMSSTSLEHCQRYAALTGSELSMTFNFHHLKVDYPGGEKWTLAKPDFVALKTLFRHWQQGMHNVAWNALFWCNHDQPRIVSRFGDEGEYRVPAAKMLAMVLHGMQGTPYIYQGEEIGMTNPHFTRITDYRDVESLNMFAELRNDGRDADELLAILASKSRDNSRTPMQWSNGDNAGFTAGEPWIGLGDNYQQINVEAALADDSSVFYTYQKLIALRKQEAILTWGNYQDLLPNSPVLWCYRREWKGQTLLVIANLSREIQPWQAGQMRGNWQLVMHNYEEASPQPCAMNLRPFEAVWWLQK
total protein half-life in vivo [6]: 2.39 ± 0.28 h | total protein half-life in vivo [7]: 1.98 ± 0.55 h | total protein half-life in vivo [8]: 2.82 ± 0.88 h | total protein half-life in vivo [12]: 5.64 h

MAGWHLDTKMAQDIVARTMRIIDTNINVMDARGRIIGSGDRERIGELHEGALLVLSQGRVVDIDDAVARHLHGVRQGINLPLRLEGEIVGVIGLTGEPENLRKYGELVCMTAEMMLEQSRLMHLLAQDSRLREELVMNLIQAEENTPALTEWAQRLGIDLNQPRVVAIVEVDSGQLGVDSAMAELQQLQNALTTPERNNLVAIVSLTEMVVLKPALNSFGRWDAEDHRKRVEQLITRMKEYGQLRFRVSLGNYFTGPGSIARSYRTAKTTMVVGKQRMPESRCYFYQDLMLPVLLDSLRGDWQANELARPLARLKTMDNNGLLRRTLAAWFRHNVQPLATSKALFIHRNTLEYRLNRISELTGLDLGNFDDRLLLYVALQLDEER
total protein half-life in vivo [6]: 2.67 ± 0.12 h | total protein half-life in vivo [7]: 6.76 h | total protein half-life in vivo [8]: 10.2 ± 3 h

MTLWINGDWITGQGASRVKRNPVSGEVLWQGNDADAAQVEQACRAARAAFPRWARLSFAERHAVVERFAALLESNKAELTAIIARETGKPRWEAATEVTAMINKIAISIKAYHVRTGEQRSEMPDGAASLRHRPHGVLAVFGPYNFPGHLPNGHIVPALLAGNTIIFKPSELTPWSGEAVMRLWQQAGLPPGVLNLVQGGRETGQALSALEDLDGLLFTGSANTGYQLHRQLSGQPEKILALEMGGNNPLIIDEVADIDAAVHLTIQSAFVTAGQRCTCARRLLLKSGAQGDAFLARLVAVSQRLTPGNWDDEPQPFIGGLISEQAAQQVVTAWQQLEAMGGRPLLAPRLLQAGTSLLTPGIIEMTGVAGVPDEEVFGPLLRVWRYDTFDEAIRMANNTRFGLSCGLVSPEREKFDQLLLEARAGIVNWNKPLTGAASTAPFGGIGASGNHRPSAWYAADYCAWPMASLESDSLTLPATLNPGLDFSDEVVR
total protein half-life in vivo [1]: 5.21 ± 0.42 h | total protein half-life in vivo [2]: 3.93 ± 0.27 h | total protein half-life in vivo [3]: 3.9 ± 0.23 h | total protein half-life in vivo [4]: 4.05 ± 0.23 h | total protein half-life in vivo [5]: 3.9 ± 0.34 h | total protein half-life in vivo [6]: 3.01 ± 0.28 h | total protein half-life in vivo [7]: 5.5 ± 0.65 h | total protein half-life in vivo [8]: 10.05 ± 0.096 h | total protein half-life in vivo [9]: 3.67 ± 0.23 h | total protein half-life in vivo [10]: 6.26 ± 0.56 h | total protein half-life in vivo [11]: 5.78 ± 0.31 h | total protein half-life in vivo [12]: 12.1 ± 1.7 h

MARLAAFDMDGTLLMPDHHLGEKTLSTLARLRERDITLTFATGRHALEMQHILGALSLDAYLITGNGTRVHSLEGELLHRDDLPADVAELVLYQQWDTRASMHIFNDDGWFTGKEIPALLQAFVYSGFRYQIIDVKKMPLGSVTKICFCGDHDDLTRLQIQLYEALGERAHLCFSATDCLEVLPVGCNKGAALTVLTQHLGLSLRDCMAFGDAMNDREMLVSVGSGFIMGNAMPQLRAELPHLPVIGHCRNQAVSHYLTHWLDYPHLPYSPE
total protein half-life in vivo [1]: 5.84 ± 0.52 h | total protein half-life in vivo [4]: 1.61 h

MSDQFDAKAFLKTVTSQPGVYRMYDAGGTVIYVGKAKDLKKRLSSYFRSNLASRKTEALVAQIQQIDVTVTHTETEALLLEHNYIKLYQPRYNVLLRDDKSYPFIFLSGDTHPRLAMHRGAKHAKGEYFGPFPNGYAVRETLALLQKIFPIRQCENSVYRNRSRPCLQYQIGRCLGPCVEGLVSEEEYAQQVEYVRLFLSGKDDQVLTQLISRMETASQNLEFEEAARIRDQIQAVRRVTEKQFVSNTGDDLDVIGVAFDAGMACVHVLFIRQGKVLGSRSYFPKVPGGTELSEVVETFVGQFYLQGSQMRTLPGEILLDFNLSDKTLLADSLSELAGRKINVQTKPRGDRARYLKLARTNAATALTSKLSQQSTVHQRLTALASVLKLPEVKRMECFDISHTMGEQTVASCVVFDANGPLRAEYRRYNITGITPGDDYAAMNQVLRRRYGKAIDDSKIPDVILIDGGKGQLAQAKNVFAELDVSWDKNHPLLLGVAKGADRKAGLETLFFEPEGEGFSLPPDSPALHVIQHIRDESHDHAIGGHRKKRAKVKNTSSLETIEGVGPKRRQMLLKYMGGLQGLRNASVEEIAKVPGISQGLAEKIFWSLKH [P0A8G0]
total protein half-life in vivo [1]: 6.54 ± 0.81 h | total protein half-life in vivo [2]: 5.14 ± 0.15 h | total protein half-life in vivo [3]: 4.77 ± 0.12 h | total protein half-life in vivo [4]: 6.421 ± 0.061 h | total protein half-life in vivo [5]: 4.75 ± 0.15 h | total protein half-life in vivo [6]: 2.84 ± 0.067 h | total protein half-life in vivo [7]: 5.1 ± 0.39 h | total protein half-life in vivo [8]: 7.83 ± 0.25 h | total protein half-life in vivo [9]: 4.84 ± 0.28 h | total protein half-life in vivo [10]: 8.62 ± 0.12 h | total protein half-life in vivo [11]: 4.61 ± 0.15 h | total protein half-life in vivo [12]: 8.48 ± 0.19 h

MKWDWIFFDADETLFTFDSFTGLQRMFLDYSVTFTAEDFQDYQAVNKPLWVDYQNGAITSLQLQHGRFESWAERLNVEPGKLNEAFINAMAEICTPLPGAVSLLNAIRGNAKIGIITNGFSALQQVRLERTGLRDYFDLLVISEEVGVAKPNKKIFDYALEQAGNPDRSRVLMVGDTAESDILGGINAGLATCWLNAHHREQPEGIAPTWTVSSLHELEQLLCKH [P0A8Y1]
total protein half-life in vivo [1]: 5.28 ± 0.098 h | total protein half-life in vivo [2]: 0.513 h | total protein half-life in vivo [4]: 0.534 h | total protein half-life in vivo [5]: 0.471 ± 0.024 h | total protein half-life in vivo [6]: 0.631 ± 0.016 h | total protein half-life in vivo [7]: 0.671 h | total protein half-life in vivo [8]: 2.97 h | total protein half-life in vivo [9]: 1.11 h | total protein half-life in vivo [10]: 1.51 h | total protein half-life in vivo [11]: 0.949 ± 0.33 h
